From US20250352661A1 (MYTHIC THERAPEUTICS, published 2025)

T1: Human LRRC15 Protein, His Tag, Acro Biosystems (human, UniProt Q8TF66 22-538, limits assumed)
T1 construct: not shown: His tag
T1 sequence (looked up): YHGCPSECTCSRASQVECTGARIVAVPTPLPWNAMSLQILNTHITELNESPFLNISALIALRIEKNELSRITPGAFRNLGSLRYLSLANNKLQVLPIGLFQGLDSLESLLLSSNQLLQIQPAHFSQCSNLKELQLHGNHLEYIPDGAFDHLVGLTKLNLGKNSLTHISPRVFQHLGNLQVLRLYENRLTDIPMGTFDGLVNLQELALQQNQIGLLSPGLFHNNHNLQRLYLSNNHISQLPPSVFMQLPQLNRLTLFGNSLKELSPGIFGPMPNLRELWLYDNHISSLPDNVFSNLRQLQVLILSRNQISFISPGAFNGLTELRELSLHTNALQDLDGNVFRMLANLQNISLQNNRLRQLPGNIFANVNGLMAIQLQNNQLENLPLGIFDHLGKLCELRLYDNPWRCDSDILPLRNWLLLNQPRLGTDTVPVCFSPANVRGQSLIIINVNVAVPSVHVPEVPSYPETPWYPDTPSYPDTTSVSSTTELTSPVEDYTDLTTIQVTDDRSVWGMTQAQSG

B1: MYT9508 (antibody, V domains shown)
VH: EVQLVESGGGLVQPGGSLRLSCTASGFSFSSSHWICWVRQAPGKGLEWVGCIYAGSIGSTYYASWAKGRFTISRDTSKNTVYLQMNSLRAEDTAVYYCARAPNDIYNYYFNLWGQGTLVTVSS
VL: EIVMTQSPSTLSASVGDRVIITCQDSENIYNYLAWYQQKPGKAPKLLIYYASTLASGVPSRFSGSGSGAEFTLTISSLQPDDFATYYCQSGYVSKSSTFGQGTKLTVL
notes: also called hu29F1 VL A25D
B2: MYT9510 (antibody, V domains shown)
VH: EVQLVESGGGLVQPGGSLRLSCTASGFSFSSSHWICWVRQAPGKGLEWVGCIYAGSIGSTYYASWAKGRFTISRDTSKNTVYLQMNSLRAEDTAVYYCARAPNDIYNYYFNLWGQGTLVTVSS
VL: EIVMTQSPSTLSASVGDRVIITCQASDNIYNYLAWYQQKPGKAPKLLIYYASTLASGVPSRFSGSGSGAEFTLTISSLQPDDFATYYCQSGYVSKSSTFGQGTKLTVL
notes: Humanized 29F1 with VL E27D; captured by anti-human Fc sensor
B3: MYT9511 (antibody, V domains shown)
VH: EVQLVESGGGLVQPGGSLRLSCTASGFSFSSSHWICWVRQAPGKGLEWVGCIYAGSIGSTYYASWAKGRFTISRDTSKNTVYLQMNSLRAEDTAVYYCARAPNDIYNYYFNLWGQGTLVTVSS
VL: EIVMTQSPSTLSASVGDRVIITCQASEDIYNYLAWYQQKPGKAPKLLIYYASTLASGVPSRFSGSGSGAEFTLTISSLQPDDFATYYCQSGYVSKSSTFGQGTKLTVL
notes: Humanized 29F1 with VL N28D; captured by anti-human Fc sensor
B4: MYT9514 (antibody, V domains shown)
VH: EVQLVESGGGLVQPGGSLRLSCTASGFSFSSSHWICWVRQAPGKGLEWVGCIYAGSIGSTYYASWAKGRFTISRDTSKNTVYLQMNSLRAEDTAVYYCARAPNDIYNYYFNLWGQGTLVTVSS
VL: EIVMTQSPSTLSASVGDRVIITCQASENIYDYLAWYQQKPGKAPKLLIYYASTLASGVPSRFSGSGSGAEFTLTISSLQPDDFATYYCQSGYVSKSSTFGQGTKLTVL
notes: Humanized 29F1 with VL N31D; captured by anti-human Fc sensor
B5: MYT9509 (antibody, V domains shown)
VH: EVQLVESGGGLVQPGGSLRLSCTASGFSFSSSHWICWVRQAPGKGLEWVGCIYAGSIGSTYYASWAKGRFTISRDTSKNTVYLQMNSLRAEDTAVYYCARAPNDIYNYYFNLWGQGTLVTVSS
VL: EIVMTQSPSTLSASVGDRVIITCQADENIYNYLAWYQQKPGKAPKLLIYYASTLASGVPSRFSGSGSGAEFTLTISSLQPDDFATYYCQSGYVSKSSTFGQGTKLTVL
notes: Humanized 29F1 with VL S26D; captured by anti-human Fc sensor
B6: MYT9753 (antibody, V domains shown)
VH: EVQLVESGGGLVQPGGSLRLSCTASGFSFSSSHWICWVRQAPGKGLEWVGCIYAGSIGSTYYASWAKGRFTISRDTSKNTVYLQMNSLRAEDTAVYYCARAPNDIYNYYFNLWGQGTLVTVSS
VL: EIVMTQSPSTLSASVGDRVIITCQASENIYNYLAWYQQKPGKAPKLLIYYASTLASGVPSRFSGSGSGAEFTLTISSLQPDDFATYYCQSGYVSKSETFGQGTKLTVL
notes: also called hu29F1 VL S97E
B7: MYT9736 (antibody, V domains shown)
VH: EVQLVESGGGLVQPGGSLRLSCTASGFSFSSSHWICWVRQAPGKGLEWVGCIYAGSIGSTYYASWAKGRFTISRDTSKNTVYLQMNSLRAEDTAVYYCARAPNDIYNYYFNLWGQGTLVTVSS
VL: EIVMTQSPSTLSASVGDRVIITCQASENIYNYEAWYQQKPGKAPKLLIYYASTLASGVPSRFSGSGSGAEFTLTISSLQPDDFATYYCQSGYVSKSSTFGQGTKLTVL
notes: also called hu29F1 VL L33E
B8: MYT9741 (antibody, V domains shown)
VH: EVQLVESGGGLVQPGGSLRLSCTASGFSFSSSHWICWVRQAPGKGLEWVGCIYAGSIGSTYYASWAKGRFTISRDTSKNTVYLQMNSLRAEDTAVYYCARAPNDIYNYYFNLWGQGTLVTVSS
VL: EIVMTQSPSTLSASVGDRVIITCQASENIYNYLAWYQQKPGKAPKLLIYYASELASGVPSRFSGSGSGAEFTLTISSLQPDDFATYYCQSGYVSKSSTFGQGTKLTVL
notes: Humanized 29F1 with VL T53E; captured by anti-human Fc sensor
B9: MYT9740 (antibody, V domains shown)
VH: EVQLVESGGGLVQPGGSLRLSCTASGFSFSSSHWICWVRQAPGKGLEWVGCIYAGSIGSTYYASWAKGRFTISRDTSKNTVYLQMNSLRAEDTAVYYCARAPNDIYNYYFNLWGQGTLVTVSS
VL: EIVMTQSPSTLSASVGDRVIITCQASENIYNYLAWYQQKPGKAPKLLIYYAETLASGVPSRFSGSGSGAEFTLTISSLQPDDFATYYCQSGYVSKSSTFGQGTKLTVL
notes: Humanized 29F1 with VL S52E; captured by anti-human Fc sensor
B10: MYT9732 (antibody, V domains shown)
VH: EVQLVESGGGLVQPGGSLRLSCTASGFSFSSSHWICWVRQAPGKGLEWVGCIYAGSIGSTYYASWAKGRFTISRDTSKNTVYLQMNSLRAEDTAVYYCARAPNDIYNYYFNLWGQGTLVTVSS
VL: EIVMTQSPSTLSASVGDRVIITCQASENEYNYLAWYQQKPGKAPKLLIYYASTLASGVPSRFSGSGSGAEFTLTISSLQPDDFATYYCQSGYVSKSSTFGQGTKLTVL
notes: also called hu29F1 VL I29E
B11: MYT9738 (antibody, V domains shown)
VH: EVQLVESGGGLVQPGGSLRLSCTASGFSFSSSHWICWVRQAPGKGLEWVGCIYAGSIGSTYYASWAKGRFTISRDTSKNTVYLQMNSLRAEDTAVYYCARAPNDIYNYYFNLWGQGTLVTVSS
VL: EIVMTQSPSTLSASVGDRVIITCQASENIYNYLAWYQQKPGKAPKLLIYEASTLASGVPSRFSGSGSGAEFTLTISSLQPDDFATYYCQSGYVSKSSTFGQGTKLTVL
notes: Humanized 29F1 with VL Y50E; captured by anti-human Fc sensor
B12: MYT9744 (antibody, V domains shown)
VH: EVQLVESGGGLVQPGGSLRLSCTASGFSFSSSHWICWVRQAPGKGLEWVGCIYAGSIGSTYYASWAKGRFTISRDTSKNTVYLQMNSLRAEDTAVYYCARAPNDIYNYYFNLWGQGTLVTVSS
VL: EIVMTQSPSTLSASVGDRVIITCQASENIYNYLAWYQQKPGKAPKLLIYYASTLAEGVPSRFSGSGSGAEFTLTISSLQPDDFATYYCQSGYVSKSSTFGQGTKLTVL
notes: Humanized 29F1 with VL S56E; captured by anti-human Fc sensor
B13: MYT9739 (antibody, V domains shown)
VH: EVQLVESGGGLVQPGGSLRLSCTASGFSFSSSHWICWVRQAPGKGLEWVGCIYAGSIGSTYYASWAKGRFTISRDTSKNTVYLQMNSLRAEDTAVYYCARAPNDIYNYYFNLWGQGTLVTVSS
VL: EIVMTQSPSTLSASVGDRVIITCQASENIYNYLAWYQQKPGKAPKLLIYYESTLASGVPSRFSGSGSGAEFTLTISSLQPDDFATYYCQSGYVSKSSTFGQGTKLTVL
notes: Humanized 29F1 with VL A51E; captured by anti-human Fc sensor
B14: MYT9734 (antibody, V domains shown)
VH: EVQLVESGGGLVQPGGSLRLSCTASGFSFSSSHWICWVRQAPGKGLEWVGCIYAGSIGSTYYASWAKGRFTISRDTSKNTVYLQMNSLRAEDTAVYYCARAPNDIYNYYFNLWGQGTLVTVSS
VL: EIVMTQSPSTLSASVGDRVIITCQASENIYEYLAWYQQKPGKAPKLLIYYASTLASGVPSRFSGSGSGAEFTLTISSLQPDDFATYYCQSGYVSKSSTFGQGTKLTVL
notes: also called hu29F1 VL N31E
B15: MYT9745 (antibody, V domains shown)
VH: EVQLVESGGGLVQPGGSLRLSCTASGFSFSSSHWICWVRQAPGKGLEWVGCIYAGSIGSTYYASWAKGRFTISRDTSKNTVYLQMNSLRAEDTAVYYCARAPNDIYNYYFNLWGQGTLVTVSS
VL: EIVMTQSPSTLSASVGDRVIITCQASENIYNYLAWYQQKPGKAPKLLIYYASTLASGVPSRFSGSGSGAEFTLTISSLQPDDFATYYCESGYVSKSSTFGQGTKLTVL
notes: also called hu29F1 VL Q89E
B16: MYT9754 (antibody, V domains shown)
VH: EVQLVESGGGLVQPGGSLRLSCTASGFSFSSSHWICWVRQAPGKGLEWVGCIYAGSIGSTYYASWAKGRFTISRDTSKNTVYLQMNSLRAEDTAVYYCARAPNDIYNYYFNLWGQGTLVTVSS
VL: EIVMTQSPSTLSASVGDRVIITCQASENIYNYLAWYQQKPGKAPKLLIYYASTLASGVPSRFSGSGSGAEFTLTISSLQPDDFATYYCQSGYVSKSSEFGQGTKLTVL
notes: also called hu29F1 VL T98E
B17: MYT9752 (antibody, V domains shown)
VH: EVQLVESGGGLVQPGGSLRLSCTASGFSFSSSHWICWVRQAPGKGLEWVGCIYAGSIGSTYYASWAKGRFTISRDTSKNTVYLQMNSLRAEDTAVYYCARAPNDIYNYYFNLWGQGTLVTVSS
VL: EIVMTQSPSTLSASVGDRVIITCQASENIYNYLAWYQQKPGKAPKLLIYYASTLASGVPSRFSGSGSGAEFTLTISSLQPDDFATYYCQSGYVSKESTFGQGTKLTVL
notes: also called hu29F1 VL S96E

Molecular target: T1, Human LRRC15 Protein, His Tag, Acro …
Experiment: BLI; dissociation pH 7.4 black, pH 5.4 grey [D00022 FIG. 5B]
Protocol: The resulting diluted supernatants were then captured on an anti-human Fc sensor (Forte Bio). A baseline was established using 1×PBST (50 mM Potassium Phosphate Buffer+150 mM NaCl+0.05% Tween 20) pH 7.4, and the […] was associated with 50 nM of LRRC15 (Human LRRC15 Protein, His Tag, Acro Biosystems) in 1×PBST pH 7.4 for 120 sec to generate an association curve. In the dissociation phase, the antibody-antigen complex on the sensor was exposed to 1×PBST pH 7.4 or pH 5.4, for 300 sec. Association and dissociation phase curves were examined for the starting ABPC antibody (with no substitutions) and each corresponding antibody variant at pH 5.4 and pH 7.4 to inform on two criteria: a) enhanced dissociation (i.e., higher koff values) at pH 5.4 due to histidine substitution compared to the starting ABPC, (with no substitutions), and b) reduced dissociation at pH 7.4 (i.e., lower koff values) compared to pH 5.4 in the antibody variant itself and with the starting ABPC (with no substitutions).
Briefly, CDRs in the 15G7 light chain were identified using the methods described in Example 9, and for each CDR, residues falling under either or both Kabat and IMGT CDR definitions were called as CDR residues. To generate pH-dependent sequence variants, individual amino acid residues within the light chain CDRs were systematically substituted with a histidine, one at a time (rabbit, MYT6122-6151). Desirable mutations were transferred to a humanized framework MYT8413-8487). After allowing for four days of protein expression, cell culture supernatants were collected, quantified by SDS-PAGE analysis, and the pH dependence of the variant was evaluated using biolayer interferometry (BLI) on an Octet RED 96e instrument (as described in Example 9). […]

Does B1 bind?
Result: binds

Does B2 bind?
Result: binds

Does B3 bind?
Result: binds

Does B4 bind?
Result: binds

Does B5 bind?
Result: binds

Molecular target: T1, Human LRRC15 Protein, His Tag, Acro …
Experiment: BLI; dissociation pH 7.4 black, pH 5.4 grey [D00028 FIG. 7B]

Does B6 bind?
Result: binds

Does B7 bind?
Result: binds

Does B8 bind?
Result: binds

Does B9 bind?
Result: binds

Does B10 bind?
Result: binds

Does B11 bind?
Result: binds

Does B12 bind?
Result: binds

Does B13 bind?
Result: binds

Does B14 bind?
Result: binds

Does B15 bind?
Result: binds

Does B16 bind?
Result: binds

Does B17 bind?
Result: binds
